8 molecules from patent publication US20240417450A1 (UNIVERSITY OF TOKYO, published 2024) can be followed below.

For assay [1], the target named is T1, E. coli wild-type SHMT, GST fusion protein (E. coli, UniProt P0A825 1-417).
T1 construct: Overexpressed in E. coli as a GST fusion protein, purified and immobilised on the ELISA plate at 2 ug/ml; not shown: Glutathione-S-transferase (GST) fusion partner
T1 sequence: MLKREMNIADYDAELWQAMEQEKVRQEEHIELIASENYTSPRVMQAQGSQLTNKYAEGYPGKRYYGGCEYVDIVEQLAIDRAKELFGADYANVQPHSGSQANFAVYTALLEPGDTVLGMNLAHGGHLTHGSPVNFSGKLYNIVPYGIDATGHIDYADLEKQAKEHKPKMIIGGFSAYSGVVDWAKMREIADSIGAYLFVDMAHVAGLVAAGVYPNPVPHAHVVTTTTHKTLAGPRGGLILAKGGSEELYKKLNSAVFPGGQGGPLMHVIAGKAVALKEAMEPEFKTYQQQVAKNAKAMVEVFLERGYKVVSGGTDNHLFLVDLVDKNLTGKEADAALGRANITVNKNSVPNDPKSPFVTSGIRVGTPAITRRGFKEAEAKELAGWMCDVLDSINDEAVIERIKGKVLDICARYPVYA
The experiment in a line: ELISA, GST fusion protein immobilised at 2 ug/ml, antibody dilution series.

Assay [2] addresses T2, E. coli iPGM (E. coli, UniProt P37689 1-514, limits assumed).
T2 sequence (looked up): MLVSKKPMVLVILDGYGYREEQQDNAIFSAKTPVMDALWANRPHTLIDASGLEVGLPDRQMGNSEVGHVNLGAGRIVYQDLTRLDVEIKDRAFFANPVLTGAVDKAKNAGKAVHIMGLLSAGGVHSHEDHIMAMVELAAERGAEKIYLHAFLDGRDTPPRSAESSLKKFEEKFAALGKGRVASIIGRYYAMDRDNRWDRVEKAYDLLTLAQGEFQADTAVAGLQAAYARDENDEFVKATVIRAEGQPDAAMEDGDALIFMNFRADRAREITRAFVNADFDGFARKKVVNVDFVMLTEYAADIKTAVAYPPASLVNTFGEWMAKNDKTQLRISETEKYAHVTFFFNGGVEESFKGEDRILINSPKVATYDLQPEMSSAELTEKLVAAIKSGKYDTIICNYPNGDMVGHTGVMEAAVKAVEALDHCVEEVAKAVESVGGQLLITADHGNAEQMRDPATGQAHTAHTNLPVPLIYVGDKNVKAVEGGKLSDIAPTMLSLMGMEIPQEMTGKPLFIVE
The experiment in a line: Western blot.

Assay [3] concerns the target T3, E. coli SHMT (25-45) (E. coli).
T3 construct: Final purified peptide used for crystallisation
T3 peptide: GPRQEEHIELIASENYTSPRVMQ
The experiment in a line: X-ray crystal structure of the Fab-peptide complex.

The target of assay [4] is T4, C. difficile iPGM (486-509) (C. difficile).
T4 construct: Final purified peptide used for crystallisation
T4 peptide: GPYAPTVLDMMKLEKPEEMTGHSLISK
The experiment in a line: X-ray crystal structure of the Fab-peptide complex.

Where a chain is given by its changes, count along the chain named.

B1: RS_H007_L001 (antibody, V domains shown)
VH: EVQLQQSGSELVKSGASVKLSCTVSGFNFTNYYIHWVRQRTEQGLEWIGRIDPENNQTTYAPKFQGKATMTADTSSNTAYLQLTSLTSEDTAVYYCARSTVLDYWGHGTTLTVSS
VL: DVLMTQSPASLSVSLGDRATISCRASQSIVHTNGNTYLEWYLQKPGQSPKLLIYKVSNRFSGVPDRFSGSGSGTDFILKISRVEAEDLGVYYCFQGSHVPPTFGGGTKLEVK
For the molecule B1, the binding result in assay [1] was “binds”.

B2: W27G2 antibody (mouse hybridoma-producing IgA) (antibody, V domains shown)
VH: B1 VH with N31D, N56D, Q57E
VL: DVLMTQTPLSLPVSLGDQASISCRASQSIVHTNGNTYLEWYLQKPGQSPKLLIYKVSNRFSGVPDRFSGSGSGTDFILKISRVEAEDLGVYYCFQGSHVPPTFGGGTKLEVKR
notes: Hybridoma-producing IgA from intestinal mucosa lamina propria B cells; also called W27 antibody; W27G2-CHT
With B2, the binding result in assay [2] is recorded as “no binding”; in assay [1], “binds”.

B3: RS_H000_L000GR Fab (Fab, V domains shown)
VH: B1 VH with N31D, N56D, Q57E
VL: B1 VL with S7T, A9L, S12P, R18Q, T20S
notes: Fab made by papain digestion of the W27 recombinant IgG expressed in CHO cells; also called IgG W27 Fab
Regarding B3, the binding result in assay [3] and in assay [4] was “binds” each time.

B4: RS_H007_L002 (antibody, V domains shown)
VH: B1 VH
VL: B1 VL with A19V
Turning to B4, the binding result in assay [1] is given as “binds”.

B5: RS_H007_L005 (antibody, V domains shown)
VH: B1 VH
VL: B1 VL with A25S
As for B5, the binding result in assay [1] is recorded as “binds”.

B6: RS_H000_L001 (antibody, V domains shown)
VH: B1 VH with N31D, N56D, Q57E
VL: B1 VL
notes: recombinant multimeric IgA made with H, L and J chain vectors (mainly dimers by SDS-PAGE); also called rW27
As for B6, the binding result in assay [1] was “binds”.

B7: RS_H007_L004 (antibody, V domains shown)
VH: B1 VH
VL: B1 VL with L11M, A25S
With B7, the binding result in assay [1] is given as “binds”.

B8: RS_H000_L005 (antibody, V domains shown)
VH: B1 VH with N31D, N56D, Q57E
VL: B1 VL with A25S
For the molecule B8, in assay [1], the binding result was “binds”.
